B1: ETS1 (parent)
chain: FSEPSFITESYQTLHPISSEELLS
B2: ZNF263 (parent)
chain: CSECGESFSRSSRLMSHQRTHTG

Variants of: B1
Assay: protein stability index of a GFP-peptide fusion (GPS, HEK-293T) (PSI 1-6); higher = more stable
Settings: c terminus: a fixed tail appended
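Further: lentivirally expressed fusions sorted by FACS into six bins by GFP to DsRed ratio, PSI derived from sequencing read proportions per bin multiplied by bin number.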

Protein stability index, by site and new letter:
P4: M 2.19; Y 2.2; N 2.99; R 2.13; L 2.03; K 2.45; F 1.92; A 2.21; Q 2.81; H 2.54; T 2.65; G 2.37; D 3.65; S 2.39; W 2.17; I 1.54; C 2.2; V 1.49; E 3.19
S2: W 2.1; M 1.72; C 2.38; N 3.37; Y 2.62; A 2.42; K 3.34; Q 1.65; H 2.46; F 2.26; T 1.95; P 1.95; I 3.17; V 2.42; R 2.66; G 2.63; D 4.15; L 1.49; E 3.98
F1: N 4.24; I 4.03; A 4.17; S 4.07; G 4.4; K 4.06; V 4.18; P 4.23; R 4.2; L 4.45; C 3.52; Q 4.43; Y 2.1; H 4.1; E 4.56; W 3.67; T 4.51; M 4; D 4.47
F6: G 3.85; A 4; E 4.53; C 3.36; D 4.8; I 3.15; L 3.22; K 3.58; M 3.48; H 4.14
S5: Q 1.75; D 2.51; P 2.66; K 2.14; H 1.58; E 2.35; G 2.09; Y 1.8; F 2.26; I 1.48; R 2.63; T 2.1; M 2.37; L 1.99; W 2.11; V 1.91; A 2.07; C 1.69; N 2.34
E3: G 2; S 2.21; M 1.9; K 2.05; Q 1.7; C 1.7; D 1.74; I 1.77; N 1.87; Y 2.23; R 2.25; V 2.5; W 1.5; F 1.6; H 2.17; L 1.81; A 2.37; T 2.35; P 2.9

Variants of: B2
Assay: as above
Settings: c terminus: native

Protein stability index of substitutions, site by site:
H17: E 2.38; F 2.73; I 3.2; C 2.42; W 3.17; L 1.38; Y 1.76; N 1.57; Q 2.04; T 1.46; A 1.44; K 2.76; D 2.52; S 1.51; P 1.11
H21: M 1.45; F 2.47; L 2.52; W 1.87; T 1.6; S 2.74; E 2.15; K 1.78; C 2.72; D 3.31; G 3.01; Y 2.64; N 2.4
R10: W 1.15; H 4.29; K 2.68; L 3.71; Q 3.85; F 2.51; Y 2.83; T 5.16; P 2; N 4.99; S 5.28; E 5.27; V 3.48; G 2.95; M 3.62; I 2.95
G23: Y 3.29; S 4; N 4.85; A 2.97; K 4.89; P 4.52; L 4.69; V 3.56; H 3.59; I 4.41; Q 4.16; R 4.2; E 4.44; C 3.33; F 3.74; W 3.79; T 4.04; M 4.34
R19: D 4.39; P 2.44; Y 3.63; C 5; E 3.78; N 4.11; L 3.49; V 2.73; A 4.1; W 3.17; H 4.51; T 3.76; F 3.55; M 3.43; K 5.13; S 3.46; Q 3.63; I 2.58
S12: N 2.52; W 2.13; M 2.58; T 1.72; D 4.42; K 1.99; L 2.01; Q 2.38; R 2.23; F 1.86; H 2.66; I 2.4; C 3.76; V 1.86; P 2.06; G 1.91; A 2.13; Y 2.65
S11: N 2.31; T 2.54; A 4.04; V 4.71; H 3.47; K 3.55; G 3.13; I 3.98; P 4.22; R 2.31; Y 3.67; D 2.1; F 3.14; M 4.29; C 3.34
T20: F 2.48; V 2.9; H 3.72; Y 2.08; Q 3.26; W 1.92; M 1.95; D 3.75; S 2.44; A 3.7; C 2.35; G 2.96; I 4.43; E 2.45; K 3.72; N 1.93; L 3.21
T22: L 4.2; E 3.76; C 2.08; A 2.03; Q 2.43; F 3.75; I 2.95; D 4.27; N 2.29; S 2.23; Y 2.25; W 2.25; V 3.03; M 3.83
S16: A 3.8; N 2.14; Y 1.93; I 2.88; L 3.83; W 1.83; C 3.1; V 3.49; M 4.14; T 3.34; R 3.69; F 2.28; H 2.64; E 4.89; D 4.8
M15: Y 2.83; S 2.19; K 3.97; V 2.54; W 1.85; E 3.72; F 3.2; T 2.54; D 3.48; Q 3.51; P 1.72; A 3.54; C 2.75; G 1.98; I 3.54; H 3.24; N 2.22; L 3.13; R 3.03
R13: V 4.14; A 4.91; W 2.56; E 5.6; G 3.3; Y 3.6; I 3.96; L 4.84; K 4.19; S 4.84; C 4.52; M 4.03; T 4.34; D 5.63; P 2.43; F 3.48; H 4.79; N 4.26; Q 4.66
Q18: S 2.13; A 2.48; M 4.32; C 2.5; G 2.49; R 1.89; Y 2.39; N 2.16; F 2.38; W 2.77; E 2.76; T 2.24; I 3.21; P 2.22; D 2.58; H 2.57; L 3.02; K 2.22
L14: D 2.74; E 2.35; N 2.12; M 1.87; Q 1.32; V 1.45; A 2.39; H 1.55; P 1.67; F 2.43; T 2.05; G 1.62; Y 2.98; W 1.96

From the supplement of paper PMC10567573
